The results in this text go back to patent publication US20110282033A1 (Ablynx, published 2011).

T1: Recombinant human FGFR4/Fc chimera (R&D Systems Cat #685 FR) (human, UniProt P22455 22-369)
T1 construct: extracellular domain; Bought reagent; also called Fc-FGFR4; not shown: Fc part of the bought chimera (detected with anti-human IgG)
T1 sequence (looked up): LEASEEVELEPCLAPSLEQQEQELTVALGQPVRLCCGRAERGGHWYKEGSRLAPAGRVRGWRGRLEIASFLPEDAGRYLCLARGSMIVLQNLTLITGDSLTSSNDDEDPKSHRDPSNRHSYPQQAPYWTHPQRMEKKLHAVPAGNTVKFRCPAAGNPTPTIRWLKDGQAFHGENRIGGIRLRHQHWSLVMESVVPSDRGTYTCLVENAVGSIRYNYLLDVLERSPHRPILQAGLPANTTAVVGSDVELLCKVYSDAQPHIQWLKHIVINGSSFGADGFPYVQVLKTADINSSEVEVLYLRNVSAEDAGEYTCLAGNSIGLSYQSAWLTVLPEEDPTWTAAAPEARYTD

B1: 55-B8 (VHH)
VHH: EVQLVESGGGLVQPGGSLRLSCTASTSIFSLYDMGWYRQAPGKERELVARITSGRSINYADSVKGRFTISRDNAKNTVYLQMNSLKPEDTAAYYCNANHHDWGTNWDFWGQGTQVTVSS
notes: Purified Nanobody
B2: 73-A9 (VHH)
VHH: EVQLVESGGGLVQPGESLSLSCTASGSAFGINSMGWYRQAPGKERELVAVMYSDSNTTYTDSVKGRFTISRDYAKNTVYLRMNSLKPEDTAVYFCHCEAIREPGDYYGWHYWGKGTLVTVSS
notes: Purified Nanobody
B3: 73-E6 (VHH)
VHH: EVQLVESGGGLVQAGGSLRLSCAASGSTFTETPFTMHALSWYRQSEGKERELVAAISLAGTTNYADSVKGRFTISRDNGKKAVYLQMNSLKAEDTAVYYCNVGSWFQGYYAMDYWGEGTLVTVSS
notes: Purified Nanobody
B4: 73-A7 (VHH)
VHH: EVQLVESGGGLVQPGGSLRLSCAASGFTFGSYDMSWVRQAPGKGPEWVSAINSGGGTTYYADSVKGRFTISRDNAKNTLYLQMNSLKPEDTAVYYCATGRPLWDYSDYADFGSWGQGTQVTVSS
notes: Purified Nanobody
B5: 53-F3 (VHH)
VHH: EVQLVESGGGLVQPGGSLRLSCAAPGSIVSINNMGWYRQAPGKQRELVALITSGGTTTYADSVKGRFTISGDNAKKMVYLQMNSLKPEDTAVYYCNAVFTTDTRNWYDYWGQGTQVTVSS
B6: 53-A6 (VHH)
VHH: EVQLVESGGGLVQPGGSRRLSCATSASITSISFMGWYRQAPGKQRELVAFIPSSGVPNYVGFAEGRFTISRDDAKNTVYLQMNGLKPEDTAVYYCYLQPLGGSGSWGQGTQVTVSS
B7: 53-B7 (VHH)
VHH: EVQLVESGGGLVQAGGSLRLDCAASGRTSYAMGWFRQGTGKEREFVAALSPSGYYTYYEDSVKGRFSIHRDNAKNMVYLQMNSLTPEDTAVYYCAAGRHETASGILPNYWGQGIQVTVSS
B8: 53-G7 (VHH)
VHH: EVQLVESGGGLVQAGGSLRLDCAASGRTSYAMGWFRQGTGKEREFVAAISPSGYYTYYEDSVKGRFFIHRDNAKNMVYLQMNSLTPEDTAVYYCAAGRHKTVSGILPDYWGQGIQVTVSS
B9: 53-C4 (VHH)
VHH: EVQLVESGGGLVQAGGSLRLDCAASGRTSYAMGWFRQGTGKEREFVAAISPSGYYTYYEDSVKGRFSIHRDNAKNMVYLQMNSLTPEDTAVYYCAAGRHQTVSGILPDYWGQGIQVTVSS
B10: 53-F9 (VHH)
VHH: EVQLVESGGGLVQAGGSLRLDCAASGRTSYAMGWFRQGTGKEREFVAAISPSGYYTYYEDSVKGRFFMHRDNAKNMVYLQMNSLTPEDTAVYYCAAGRHNTVSGILPDYWGRGIQVTVSS
B11: 53-C7 (VHH)
VHH: EVQLVESGGGLVQAGGSLRLDCAASGRTSYAMGWFRQGTGQEREFVAAISPSGYYTYYEDSVKGRFNIHRDNTKNMVYLQMNSLTPEDTAVYYCAAGRHKTVSGILPDYWGQGIQVTVSS
B12: 53-G8 (VHH)
VHH: KVQLVESGGGLVQAGGSLRLDCAASGRTSYAMGWFRQGTGKEREFVSAISPSGYYTYYEDSVKGRFSIHRDNAKNMVYLQMNSLTPEDTAVYYCAAGRHQTVSGILPDYWGQGIQVTVSS
B13: 53-D6 (VHH)
VHH: EVQLVESGGGLVEAGGSLRLSCTASGGTFSTYAMGWFRQAPGKEREFAAAISRNGGSKGYKESVKGRFTISRDNAKNTVYLQMNSLKPEDTAVYYCAASRTYTYSTAMKDYNYWGQGTQVTVSS
B14: 53-F7 (VHH)
VHH: EVQLVESGGALVQPGGSLRLSCAASGSIVSIDFMGWYRQAPGKQREVVTFITSGGSPNYVDSVEGRFTISRDNAKNTMYLQMNSLKPEDTAVYYCYMQSGTAGSWGQGTQVTVSS
B15: 53-A3 (VHH)
VHH: EVQLVESGGGLVQPGGSLRLSCAASGSIVRVDFMGWYRQAPGKQREVVTFITSGGSPNYVDSVTGRFTISRDNAKNTMYLQMNSLKPEDTAVYYCYIQSGTAGSWGQGTQVTVSS
notes: Purified Nanobody
B16: 53-H8 (VHH)
VHH: EVQLVESGGGLVQAGGSLRLTCVVSGRTYNNYVMGWFRQAPGKEREFVAGIDWSSSWTSTTLYADSVKGRFTISRNNAKKTVSLQMNSLKPEDTAVYYCAANLGSKNPSLRPGRETYNYWGQGAQVTVSS
notes: Purified Nanobody
B17: 53-G10 (VHH)
VHH: EVQLVESGGGLVQAGGSLRLSCAASGLFFSFYNMGWFRQAPGKEREFVAIIRKTGGSTYYADSVKGRFTISRDNAKNTVYLQMDSLKPEDTAVYYCAAASSYYSDSYYYTRSDKYNYWGQGTQVTVSS
notes: Purified Nanobody
B18: 53-A5 (VHH)
VHH: EVQLVESGGGLVQAGGSLRLTCVVSGRTYNNYVMGWFRQAPGKEREFVAGIDWSSSWSSTLYADSVKGRFTISRNNAKKTVSLQMNSLKPEDTAVYYCAANLGSKNPSLRPGREAYNYWGQGTQVTVSS
notes: Purified Nanobody

The target of the first assay is T1, Recombinant human FGFR4/Fc chimera (R&D …). Briefly: ELISA: periplasmic extract on coated FGFR4-Fc (500 ng/ml). The procedure:
In order to determine binding specificity to FGFR4, the clones were tested in an ELISA binding assay setup, using the monoclonal […]. Shortly, 500 ng/ml of Fc-FGFR4 (R&D Systems Cat #685 FR) was coated on Maxisorp ELISA plates (Nunc) and free binding sites were blocked using 4% Marvel skimmed milk in PBS. After a wash step with PBS, 10 ul of periplasmic extract from the monoclonal inductions of the different clones in 100 ul 2% Marvel PBS were allowed to bind to the FGFR4-Fc. […] 53-G3 was used as a reference since it was selected against PDGFRβ-Fc.
B1: the binding result was “binds”. With B2, the binding result is “binds”. On the same count and under the same terms, in the case of B3 it was “binds”; in that of B4, “binds”.

The target of a further assay is T2, Recombinant human PDGFRβ/Fc chimera (R&D Systems Cat #385 PR) (human, UniProt P09619 33-532).
T2 construct: extracellular domain; Bought reagent; also called PDGFRP-Fc; not shown: Fc part of the bought chimera (captured and detected with anti-human IgG)
T2 sequence (P09619 33-532, change not shown): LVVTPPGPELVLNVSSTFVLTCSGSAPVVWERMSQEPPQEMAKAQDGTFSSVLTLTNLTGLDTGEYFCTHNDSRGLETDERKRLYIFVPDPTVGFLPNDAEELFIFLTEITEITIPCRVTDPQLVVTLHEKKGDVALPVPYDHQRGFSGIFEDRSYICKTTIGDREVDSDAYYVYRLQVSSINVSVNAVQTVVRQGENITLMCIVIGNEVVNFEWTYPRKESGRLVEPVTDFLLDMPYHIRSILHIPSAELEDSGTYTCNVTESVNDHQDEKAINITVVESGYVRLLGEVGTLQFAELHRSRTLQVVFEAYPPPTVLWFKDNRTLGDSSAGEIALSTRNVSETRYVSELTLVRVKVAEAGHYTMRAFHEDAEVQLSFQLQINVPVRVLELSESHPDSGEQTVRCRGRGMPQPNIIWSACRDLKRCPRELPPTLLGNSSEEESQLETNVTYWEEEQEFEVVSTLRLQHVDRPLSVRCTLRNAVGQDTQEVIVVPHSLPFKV
Briefly: ELISA binding screen on captured PDGFRβ-Fc and ELISA ligand competition. As for the experimental part:
(§1) In order to determine binding specificity to PDGFRβ-Fc, the clones were tested in an ELISA binding assay setup, using the monoclonal phage pools. Shortly, 1 ug/ml of Fc-capturing Ab (Rabbit anti-human IgG, DAKO # A423) was coated on Maxisorp ELISA plates (Nunc) and free binding sites were blocked using 4% Marvel skimmed milk in PBS. Next, 0.1 ug/ml receptor in 2% Marvel/PBS was captured. After a wash step with PBS, 10 ul of supernatant from the monoclonal phage inductions of the different clones in 100 ul 2% Marvel PBS were allowed to bind to the captured PDGFRP-Fc. […] Binding specificity was determined based on OD values compared to controls having received no phage.
Clones tested in the PDGFRβ binding assay were also screened for their ability to block PDGF-BB binding to PDGFRβ-Fc. For this, Nanobody containing periplasmic extracts, or selected purified Nanobodies, were used in an ELISA-based ligand competition setup. In short, 1.0 ug/ml (80 nM) recombinant human PDGF-BB (R&D Systems #220-BB) was coated in 96 well Maxisorp microtiter plates (Nunc) and blocked with 4% Marvel skimmed milk in PBS. In parallel, 1 ug/ml (12 nM) PDGFRβ-Fc chimera was incubated with periplasmic extracts or purified Nanobody. After 1 hour, the receptor-Nanobody pre-mixes were incubated 1 hour with the coated ligand. Bound PDGFRβ-Fc was detected using HRP-conjugated goat anti-human IgG (Jackson Immunoresearch, Cat #109-035-098). Blocking activity was determined as loss of OD signal, as compared to wells where no Nanobodies, or irrelevant Nb, had been added.
In the case of B5, the binding result is reported as “binds”.

As for B6, the binding result is listed as “binds”. Consider B7, for which the binding result is “binds”. For B8, the binding result is listed as “binds”. Still for that read-out and setting: in the case of B9 it was “binds”. B10: the binding result is “binds”.

B11: the binding result is “binds”. As to B12, the binding result is listed as “binds”. In the case of B13, the binding result is “binds”. Take B14: the binding result is “binds”.

Another assay has as its target T2, Recombinant human PDGFRβ/Fc chimera …. Put plainly: phage ELISA on PDGFRβ-Fc (0.1 ug/ml) captured by coated anti-human IgG, detection with HRP anti-M13. As for the experimental part: as §1
Turning to B15, the binding result is “binds”.

A further assay shares this target. Briefly: competition ELISA: PDGFRβ-Fc (12 nM) pre-mixed with Nanobody, binding to coated PDGF-BB (80 nM), detection with HRP anti-human IgG. As for the experimental part: In order to determine the receptor blocking efficiency of clones tested positive for PDGF-BB competition, a dilution series of purified Nanobodies were tested in the ELISA-based ligand competition setup. In short, 1.0 ug/ml (80 nM) recombinant human PDGF-BB (R&D Systems #220-BB) was coated in 96 well Maxisorp microtiter plates (Nunc) and blocked with 4% Marvel skimmed milk in PBS. In parallel, 1 ug/ml (12 nM) PDGFRβ-Fc chimera was incubated with a dilution series of purified Nanobodies. After 1 hour, the receptor-Nanobody pre-mixes were incubated 1 hour with the coated ligand. Bound PDGFRβ-Fc was detected using HRP-conjugated goat anti-human IgG (Jackson Immunoresearch, Cat # 109-035-098). […] Ligand is coated at 80 nM and receptor is added at 12 nM.
As for B16, the “IC50 (read off the curve)” value is roughly 9 nM. Consider B17, for which the “IC50 (read off the curve)” value is roughly 60 nM. Still for that read-out and setting: in the case of B18 it was roughly 8 nM.
